Drawing on paper PMC9652321, “Structural basis of human SNAPc recognizing proximal sequence element of snRNA promoter”, this text covers Kd for one molecule.

Positions count from the first letter of the chain named.

As a reminder, the Kd is the concentration at which binding is half-saturated.

Data set [1] has as its target T1, mSNAPc#2 SNAP50-W350A (Homo sapiens, UniProt Q5SXM2;Q92966;Q16533;O75971 1-505;1-411;1-268;1-98, W350A).
T1 sequence 1: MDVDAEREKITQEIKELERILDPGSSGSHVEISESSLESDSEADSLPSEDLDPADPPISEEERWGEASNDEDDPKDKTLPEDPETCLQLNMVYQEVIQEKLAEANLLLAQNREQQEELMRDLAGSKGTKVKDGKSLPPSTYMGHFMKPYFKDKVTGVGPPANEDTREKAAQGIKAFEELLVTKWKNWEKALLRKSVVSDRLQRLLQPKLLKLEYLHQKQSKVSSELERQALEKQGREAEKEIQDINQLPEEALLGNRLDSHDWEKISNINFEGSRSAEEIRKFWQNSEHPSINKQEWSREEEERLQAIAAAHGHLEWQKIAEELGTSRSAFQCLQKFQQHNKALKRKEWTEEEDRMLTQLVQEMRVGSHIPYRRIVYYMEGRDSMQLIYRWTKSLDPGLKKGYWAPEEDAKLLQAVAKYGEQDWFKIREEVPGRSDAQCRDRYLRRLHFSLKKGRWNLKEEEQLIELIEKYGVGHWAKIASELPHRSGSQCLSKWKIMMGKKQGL
T1 sequence 2: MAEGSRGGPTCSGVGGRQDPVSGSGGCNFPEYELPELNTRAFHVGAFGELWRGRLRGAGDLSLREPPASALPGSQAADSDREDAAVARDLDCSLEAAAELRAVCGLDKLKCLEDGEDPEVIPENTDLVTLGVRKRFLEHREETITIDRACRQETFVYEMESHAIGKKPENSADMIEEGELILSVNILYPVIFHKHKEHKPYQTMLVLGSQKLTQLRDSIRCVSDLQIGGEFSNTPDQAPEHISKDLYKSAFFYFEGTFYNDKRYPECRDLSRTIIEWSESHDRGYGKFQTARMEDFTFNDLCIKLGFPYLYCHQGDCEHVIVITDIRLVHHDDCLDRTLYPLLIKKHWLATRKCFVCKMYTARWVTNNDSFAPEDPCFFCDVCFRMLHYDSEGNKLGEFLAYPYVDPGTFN
T1 sequence 3: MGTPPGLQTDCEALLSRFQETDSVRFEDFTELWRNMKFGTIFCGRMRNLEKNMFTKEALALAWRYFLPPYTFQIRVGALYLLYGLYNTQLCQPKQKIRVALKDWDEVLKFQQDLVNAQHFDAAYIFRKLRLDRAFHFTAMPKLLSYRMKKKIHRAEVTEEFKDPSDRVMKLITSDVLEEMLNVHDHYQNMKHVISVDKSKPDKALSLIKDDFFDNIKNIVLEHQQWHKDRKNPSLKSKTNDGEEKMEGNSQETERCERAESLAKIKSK
T1 sequence 4: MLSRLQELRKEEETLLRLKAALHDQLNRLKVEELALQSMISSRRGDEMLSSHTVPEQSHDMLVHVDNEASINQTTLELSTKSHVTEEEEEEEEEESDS
Kind of data set: SPR; EMSA: 100 mM KCl, 25 mM HEPES-K pH 7.6, 12.5 mM MgCl2, 10 uM ZnCl2, 0.1 mM EDTA, 10% glycerol, 3 mM DTT, 0.5 mM PMSF, 50 nM DNA, RT 30 min; SPR: 100 mM KCl, 12.5 mM MgCl2, 10 uM ZnCl2, 0.1 mM EDTA, 0.05% P20, 25 C. As to conditions: protein: recombinant; tags: as P1; copies: 1;1;1;1. A general note: SPR reads the build-up and loss of mass on a sensor chip optically.

In data set [2] the target is T2, mSNAPc#2 SNAP190-R445A (Homo sapiens, UniProt Q5SXM2;Q92966;Q16533;O75971 1-505;1-411;1-268;1-98, R445A).
T2 sequence 1: T1 sequence 1 with R445A
T2 sequence 2: T1 sequence 2 with A350W
T2 sequence 3: T1 sequence 3
T2 sequence 4: T1 sequence 4
The data set is described as above. The following applies: protein: recombinant; tags: as P1; copies: 1;1;1;1.

B1: 25 bp hU6-1 PSE (SPR) (dsDNA)
DNA 1: TGCTTACCGTAACTTGAAAGTATTT
DNA 2: AAATACTTTCAAGTTACGGTAAGCA
Take B1: the results for the Kd in data set [1] and in data set [2] were 887 nM and 603 nM, respectively.
